Consider one substance from PMC7064531.

For the experiment, the target named is hRpn10^322–366 peptide with Y326 phosphorylated (human) (UniProt P55036). The experiment is described as follows: ITC; 25 °C, MicroCal iTC200; E6AP AZUL injected into hRpn10 305-377 (0.0405 mM) or hRpn10 322-366 peptides (0.01 mM) in the cell; 10 mM MOPS pH 6.5, 50 mM NaCl, 5 mM DTT, 10 μM zinc sulfate; one-site fit.

E6AP AZUL (amino-terminal zinc-binding domain of ubiquitin E3a ligase), amino acids 24 to 87, sequence (Q05086 24-87): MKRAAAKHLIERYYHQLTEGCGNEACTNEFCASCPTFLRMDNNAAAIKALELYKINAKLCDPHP

Substance “E6AP AZUL (amino-terminal zinc-binding domain of ubiquitin E3a ligase), amino acids 24 to 87 (from UniProt Q05086 24-87) (domain or fragment)” came in with a fold reduction of affinity against unphosphorylated hRpn10 322-366 of 10 fold.
